Laboratory results: patent US12551573B2, “Compositions and methods for the targeting of PCSK9” (Scribe Therapeutics Inc., priority 2022, dated 2026)

B1: DOMAIN_29066 (protein, listed as Xenopus tropicalis)
chain: VKFDEVAVVFSEDEWNLLTDQQRGLYMEVMKENYEHLIYLGFEVPVILSLLQDGGGIGSDTVTQSKSQQVAGAEESKSSVTLEGPIPETLPS
B2: DOMAIN_27579 (protein)
chain: SQELLTFKDISVDFTQEEWGQLAPAHRNLYREVMLENYGNLVSVAGCQLSKPSVISQLEKGEEPWMTEKEGPGDPSSDLKS
modifications: Muntiacus muntjak
B3: DOMAIN_28085 (protein, listed as Enhydra lutris)
chain: SQELLTFKDISVDFTQEEWGQLPLAHRNLYREVMLENYGNLVSVAGYQLSKPSVISQLEKGQEPWMTEKEVPEDPSSDLRT
B4: DOMAIN_27902 (protein)
chain: SQELLTFKDVSVDFTQEEWGQLSLAHRNLYREVMLENYGNLVSVAGYQLSKPSVISQLEKGQEPWMTEKKGPGDPSPDLKN
modifications: Vulpes vulpes
B5: DOMAIN_28051 (protein, listed as Neomonachus schauinslandi)
chain: SQGLLTFKDISVDFTQEEWGQLAPAHRNLYREVMLENYGNLVSVAGYQLSKPSVISQLEKGQEPWMTEKEGPGDSSSDLKN
B6: DOMAIN_29434 (protein, listed as Mus caroli)
chain: MTYDDVHVNFTGEEWALLSPSQKRLYKDVMLETYRNLTAIGYNWEDHNSEHFQHSRRHGRHERRHTGEKPSVYTQCGKVFAYH
B7: DOMAIN_26501 (protein, listed as Geotrypetes seraphini)
chain: AQVPVTFEDIAVYFSQEEWEDLEEQQRELYKDVMKENYETLSSLGPPAVTPDIISHIERGEEPYIRFESGPEEREIGKSSC
B8: DOMAIN_26496 (protein, listed as Geotrypetes seraphini)
chain: QMPVKFEDIAVSFSQEEWEYLDEEQKELYREVMKENYQTLISLGTGSPSITPDIISHIERGEEPYIREEPGSEEREPGRSS
B9: DOMAIN_26999 (protein, listed as Xenopus laevis)
chain: AQDPVTFDDISVYFSRDEWALLDAGQKQLYREVMAENYRALVSVGYVMEEPGLVSHIEHEQQGSPIRSRSSLHAGRHCGFI
B10: DOMAIN_29900 (protein)
chain: VAFEDVAVNFTQEEWALLNSSQKNLYREVMQETCRNLASVGSKWKDQNIEDHFEKPGKNIRKHMVQKLCESKEGSQYGEVVSQIPNL
modifications: Nomascus leucogenys
B11: DOMAIN_26925 (protein, listed as Alligator sinensis)
chain: PETVVSFEDVAVRFSPDEWHLLDDGQRRLYRDVLRENYSHVRSLGFPVPDLAVIFRMERGEEPWPPGLPAGTKSDDQEEER
B12: DOMAIN_27032 (protein, listed as Alligator mississippiensis)
chain: PETVVSFEDVAVRFSPDEWHLLDDGQRRLYRDVLRENYSHVRSLGFPVPDLAVIFRMERGEEPWPPGLPAGEWPWGQGQAP
B13: DOMAIN_28823 (protein)
chain: QVPVTFEDITVYFSREQWEYLDEGQKELYREVMKENYETLISLGTGPEGFNPEVLARIKLEEESHVWDPKEPGQKEVTRSY
modifications: Microcaecilia unicolor
B14: DOMAIN_27566 (protein)
chain: QLTFEDVALSFSKEEWQIMDPNQKTLYIDVMREIYETVTSLGLKLKNDTGNDQPVSLSTSEIQPSGCKVLRKARMKVAQTT
modifications: Muntiacus muntjak
B15: DOMAIN_28158 (protein, listed as Odocoileus virginianus)
chain: QLTFEDVALSFSKEEWQIMDPNQKTLYIDVMQEIYETVTSLGLKLKNDTGNDQPVSLSTSEIQPSGCKVLRKARMKVAQTT
B16: DOMAIN_26463 (protein, listed as Pelodiscus sinensis)
chain: DSMRVTFEEVAVYFTPGQGALLGPAQRALYRDVMQENYEAVTSLGFPVPKPELIARLERGEEPWVPDLQAREEREIPRGTC
B17: DOMAIN_26886 (protein, listed as Homo sapiens)
chain: QLQETMTFKDVEVTFSQDEWGWLDSAQRNLYRDVMLENYRNMASLVGPFTKPALISWLEAREPWGLNMQAAQPKGNPVAAP
B18: DOMAIN_31340 (protein, listed as Homo sapiens)
chain: LTFEDVAVYFSEEEWQLLNPLEKTLYNDVMQDIYETVISLGLKLKNDTGNDHPISVSTSEIQTSGCEVSKKTRMKIAQKTMGRE
B19: DOMAIN_26134 (protein, listed as Geotrypetes seraphini)
chain: AQVPVTFEDIAIYFSQEEWEYLDEGQKALYREVMKENYETLLLLGCPGLKPVIISSIEQGEEPCVRKLQERAELYPTAGDE
B20: DOMAIN_26407 (protein, listed as Colinus virginianus)
chain: PSVPVTFRDVFVQFSRDEWALLDDEQKELHQSVMQSNYEMLMSLYCDLAKPEVSLQMERGEPCLPAEPDLQGTAVSLNPAA
B21: DOMAIN_26292 (protein, listed as Geotrypetes seraphini)
chain: QMQVTFEEVAISFSQEEWEYLDEEQKELYREVMKENYQTLISLATGSPTVTPKIIAHIERGEEPYIRGEPGSEERETGNSS
B22: DOMAIN_26268 (protein, listed as Geotrypetes seraphini)
chain: VARMQTRVTFDDIAVSFSQEEWEYLDEGQKELYREVMEENLELLTSLGSLVAQPEQMEELYMMDHHDMGLRGTLLSLCTED
B23: DOMAIN_26131 (protein, listed as Geotrypetes seraphini)
chain: AQMPVKFEDIAVSFSQEEWEYLNEEQKELYREVMEENYQTLISLGSPPVTPDIISHIERGEEPYIREEPGSEEREPGRSSC
B24: DOMAIN_25996 (protein, listed as Geotrypetes seraphini)
chain: QMPVKFEDIAVSFSQEEWEYLNEEQKELYREVMEENYQTLISLGTGSPPITPDIISHIERGEEPYIREEPGSEERGPVRSS
B25: DOMAIN_26180 (protein, listed as Geotrypetes seraphini)
chain: QMPVKFEDIAVSFSQEEWEYLNEEQKELYREVMEENYQTLISLGIGSPSVTPDIISHIEGGEEPYIREEPGSEEREPGRSS
B26: DOMAIN_26306 (protein, listed as Geotrypetes seraphini)
chain: QMPIKFEDIAVSFSQEEWEYLNEEQKELYREVMKENYQTLISLGTGSPPVTPDIISHIERGEEPYIREEPGSEEREPGRSS
B27: DOMAIN_26299 (protein, listed as Geotrypetes seraphini)
chain: QIPVIFEDIVIYFSQEEWKDLEEWQKELYKDVMKENYQTLISLGTGFPTPPPDIISHIERGEEPYIRDELESEKRETGKRG
B28: DOMAIN_26305 (protein, listed as Geotrypetes seraphini)
chain: QQMQVTFEDVAVSFSQEEWEYLDEGQKELYREVMKENYETVVSLGSPASTPKIISCIECGEEAYIRGEPGSEGRETGKSSC
B29: DOMAIN_25973 (protein, listed as Geotrypetes seraphini)
chain: ARAPVSFEEVAVYFSPEEWQTLQGWQKEMYRGVMRENYEIMLSLGYQFSKPEILLMMERGEEPCVEDCQRRIPVTFREKHL
B30: DOMAIN_26044 (protein, listed as Geotrypetes seraphini)
chain: QMRLRFEDISVSFSQEEWAYLDEEQKELYREVMRDNYQTLISLGIGSPPVTPDIISCIEQGEEPYIRDEPGSEERKTGRSS
B31: DOMAIN_26177 (protein, listed as Geotrypetes seraphini)
chain: ASAQVTFEDIAVSFCHEEWRYLDEGQKELYKEVMKENYETLISLGFLCEKPSLISKIEQEEDPCVRDQQNSRERRRRLKNF
B32: DOMAIN_26103 (protein, listed as Geotrypetes seraphini)
chain: EMRVMFEEITVSFSQEEWEYLDEGQKELYQEVMKENHETLIFLETNLQFVNPDMLSKIRRDSRMSRKRKATRSYAADDEAK
B33: DOMAIN_26012 (protein, listed as Geotrypetes seraphini)
chain: QMQVKFEDIAISFSQEEWEYLNEEQKELYREVMEENYQTLLSLATDSPTFTPKIISYIKRGEEPYIRGEPDSEERESGKSS
B34: DOMAIN_938 (protein, listed as Pan paniscus)
chain: MPANEDAPQPGEHGSACEVSVSFEDVTVDFSREEWQQLDSTQRRLYQDVMLENYSHLLSVGFEVPKPEVIFKLEQGEGPWT
B35: DOMAIN_980 (protein)
chain: MPLKAQYQEMVTFEDVAVHFTKTEWTGLSPAQRALYRSVMLENFGNLTALGYPVPKPALISLLEGGDMAWGLEAQDDPPAE
modifications: Pan troglodytes

system: HBEGF locus; type: cell-based, human; details: fold change in abundance of each repressor domain in the dXR library before vs after diphtheria toxin selection; dXR repression of the HBEGF gene; domains meeting p-value <0.01 and log2(fold change) >2

Row | Molecule | Log2 (fold change)
1 | B1 | 2.6393
2 | B2 | 3.8878
3 | B3 | 2.2962
4 | B4 | 2.9068
5 | B5 | 2.4353
6 | B6 | 2.2707
7 | B7 | 2.6513
8 | B8 | 2.7991
9 | B9 | 3.4317
10 | B10 | 2.1583
11 | B11 | 3.2248
12 | B12 | 3.4805
13 | B13 | 2.331
14 | B14 | 2.7825
15 | B15 | 3.0762
16 | B16 | 2.8812
17 | B17 | 3.3209
18 | B18 | 2.8261

same assay, conditions: high-throughput screen of dXR repression of the HBEGF gene; abundance of each domain in the library before vs after diphtheria toxin selection; listed domains met p-value <0.01 and log2(fold change) >2

Row | Molecule | Log2 (fold change)
19 | B19 | 2.4433
20 | B20 | 2.9778
21 | B21 | 2.4722
22 | B22 | 2.1404
23 | B23 | 2.4087
24 | B24 | 3.984
25 | B25 | 3.4522
26 | B26 | 2.6178
27 | B27 | 2.3704
28 | B28 | 3.0107
29 | B29 | 2.7804
30 | B30 | 2.8874
31 | B31 | 3.4467
32 | B32 | 2.5308
33 | B33 | 2.3532

same assay, conditions: high-throughput screen of dXR repression of the HBEGF gene; change in abundance of each domain in the library before and after diphtheria toxin selection

Row | Molecule | Log2 (fold change)
34 | B34 | 2.2926
35 | B35 | 2.9297
